Source: patent US20100285988A1
Each block holds one substance with its values, some of them ahead of it.

Columns and labels:
[1] = biological target: γ-secretase (human; HeLa cell membrane / solubilized HeLa membrane; endogenous in HEK293 cells) (human) (UniProt P49768); test: cell-based or functional assay
[2] = biological target: γ-secretase (mouse; mouse brain membrane, N2A neuroblastoma cells) (mouse); test: cell-based or functional assay

reaction rate of γ-secretase (Aβ40 production in vitro) relative to WT βCTF [1]: 3 fold
Substance: recombinant βCTF with the Flemish mutation (A21G) (from UniProt P05067 672-770)

inhibition of X40 production, αCTF at 0.25 µM [1]: 24%
inhibition of X40 production, αCTF at 0.5 µM [1]: 32%
inhibition of X40 production, αCTF at 1.0 µM [1]: 60%
suppression of γ-secretase activity for Aβ production from 1 µM βCTF, αCTF at 0.25 µM [1]: 66%
suppression of γ-secretase activity for Aβ production from 1 µM βCTF, αCTF at 0.5 µM [1]: 71%
suppression of γ-secretase activity for Aβ production from 1 µM βCTF, αCTF at 1.0 µM [1]: 82%
Substance: αCTF-FLAG (recombinant α-secretase cleaved APP C-terminal fragment) (from UniProt P05067 688-770)

reaction rate of γ-secretase, 40-site production, relative to βCTF (mouse brain membrane) [2]: 25 fold
reaction rate of γ-secretase, 42-site production, relative to βCTF (mouse brain membrane) [2]: 11 fold
rate of γ-secretase activity for Aβ38 production relative to βCTF (HeLa membrane) [1]: < 10 fold
secreted Aβ40 from transfected HEK293T cells relative to SPβCTF (ECL) [1]: 10 fold
Substance: βCTFΔ (Aβ17-23 deleted form of βCTF)
